We go through six molecules from patent publication EP4725501A1 (Staidson (Beijing) Biopharmaceuticals Co., Ltd., dated 2026).

Assay [1] concerns the target T1, MASP3 in Factor D depleted human plasma (human, UniProt P48740-2 20-728).
T1 sequence (looked up): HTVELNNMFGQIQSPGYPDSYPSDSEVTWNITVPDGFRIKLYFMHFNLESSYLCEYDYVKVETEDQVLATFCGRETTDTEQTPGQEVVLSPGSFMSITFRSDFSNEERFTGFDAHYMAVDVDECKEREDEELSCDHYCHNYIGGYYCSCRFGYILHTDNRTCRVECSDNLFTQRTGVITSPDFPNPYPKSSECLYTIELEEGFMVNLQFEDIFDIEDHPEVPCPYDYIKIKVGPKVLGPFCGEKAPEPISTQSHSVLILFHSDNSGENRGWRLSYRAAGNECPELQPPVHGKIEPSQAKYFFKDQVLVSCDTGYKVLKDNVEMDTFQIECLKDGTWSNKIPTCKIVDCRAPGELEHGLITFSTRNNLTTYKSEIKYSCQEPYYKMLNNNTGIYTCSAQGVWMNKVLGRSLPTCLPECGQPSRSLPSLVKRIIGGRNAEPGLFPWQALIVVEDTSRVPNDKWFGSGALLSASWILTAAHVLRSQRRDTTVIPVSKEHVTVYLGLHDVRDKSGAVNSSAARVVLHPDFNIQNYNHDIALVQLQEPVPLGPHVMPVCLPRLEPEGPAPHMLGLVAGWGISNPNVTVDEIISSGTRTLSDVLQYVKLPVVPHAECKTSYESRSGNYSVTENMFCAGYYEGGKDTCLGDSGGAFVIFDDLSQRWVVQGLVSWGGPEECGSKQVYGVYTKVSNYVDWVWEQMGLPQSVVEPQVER
The assay is described as follows: cell-based or functional assay.

In a further assay the target is T2, mouse MASP3-His (mouse, UniProt P98064-2 25-733).
T2 construct: not shown: His tag added to the terminal
T2 sequence (looked up): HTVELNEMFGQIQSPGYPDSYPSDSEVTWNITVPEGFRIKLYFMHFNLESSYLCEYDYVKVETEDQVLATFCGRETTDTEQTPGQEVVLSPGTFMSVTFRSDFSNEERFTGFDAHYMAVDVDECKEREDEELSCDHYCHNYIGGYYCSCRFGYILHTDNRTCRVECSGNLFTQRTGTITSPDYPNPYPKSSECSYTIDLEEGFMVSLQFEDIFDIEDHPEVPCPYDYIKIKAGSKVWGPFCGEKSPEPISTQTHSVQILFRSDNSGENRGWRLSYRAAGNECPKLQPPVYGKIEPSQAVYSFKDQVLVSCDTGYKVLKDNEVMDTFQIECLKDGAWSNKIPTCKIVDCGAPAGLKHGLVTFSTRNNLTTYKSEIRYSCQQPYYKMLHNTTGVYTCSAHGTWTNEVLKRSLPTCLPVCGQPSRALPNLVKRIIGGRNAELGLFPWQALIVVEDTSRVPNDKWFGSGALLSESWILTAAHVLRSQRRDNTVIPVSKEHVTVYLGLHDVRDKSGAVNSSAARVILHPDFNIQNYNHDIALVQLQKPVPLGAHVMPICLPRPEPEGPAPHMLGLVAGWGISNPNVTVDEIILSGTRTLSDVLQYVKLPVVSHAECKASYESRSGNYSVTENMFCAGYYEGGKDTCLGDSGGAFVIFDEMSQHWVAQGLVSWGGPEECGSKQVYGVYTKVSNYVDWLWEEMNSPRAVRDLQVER
The assay is described as follows: SPR (Biacore 8K); antibody immobilized on CM5 chip, antigen as analyte. (In SPR one partner is held on a chip, and binding of the other changes the refractive index at the surface.)

The next assay has as its target T3, monkey MASP3-His (monkey).
T3 construct: monkey species not further specified
The assay is described as above.

For assay [2], the target named is T4, human MASP3-His (human, UniProt P48740-2 20-728).
T4 construct: also called human MASP3 antigen; not shown: His tag added to the terminal
T4 sequence (looked up): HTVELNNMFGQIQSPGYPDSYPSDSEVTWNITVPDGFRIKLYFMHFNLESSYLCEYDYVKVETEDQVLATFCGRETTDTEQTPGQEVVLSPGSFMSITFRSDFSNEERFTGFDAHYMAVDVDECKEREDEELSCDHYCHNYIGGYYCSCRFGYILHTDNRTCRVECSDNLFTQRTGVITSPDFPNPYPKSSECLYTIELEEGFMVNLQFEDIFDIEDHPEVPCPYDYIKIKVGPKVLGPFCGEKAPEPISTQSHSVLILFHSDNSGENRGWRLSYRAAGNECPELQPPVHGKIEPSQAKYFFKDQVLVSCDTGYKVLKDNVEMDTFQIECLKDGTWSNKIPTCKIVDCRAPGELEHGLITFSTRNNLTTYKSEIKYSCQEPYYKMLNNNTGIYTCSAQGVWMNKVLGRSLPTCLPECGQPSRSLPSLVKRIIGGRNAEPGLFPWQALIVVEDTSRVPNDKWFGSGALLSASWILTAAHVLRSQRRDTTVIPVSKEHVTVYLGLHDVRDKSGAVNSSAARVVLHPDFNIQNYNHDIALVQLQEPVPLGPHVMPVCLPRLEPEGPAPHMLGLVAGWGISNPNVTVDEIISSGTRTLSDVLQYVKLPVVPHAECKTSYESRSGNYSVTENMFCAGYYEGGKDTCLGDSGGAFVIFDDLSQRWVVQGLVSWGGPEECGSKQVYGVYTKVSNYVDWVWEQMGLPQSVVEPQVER
The assay is described as above.

In assay [3] the target is T4, human MASP3-His. The assay is described as follows: cell-based or functional assay.

B1: M3-K2-8 (antibody, V domains shown)
VH: QVQLVQSGAEVKKPGASVKVSCKASGYTFTGKWIEWVRQAPGQGLEWMGEILPGSGSTDYNERFKDRATFTADTSTSTAYMELSSLRSEDTAVYYCVRSEDLWGQGTLVTVSS
VL: DIVLTQSPDSLAVSLGERATINCKSSQNLFNSRTRKNYLAWFQQKPGQSPKLLIYWASTRESGVPDRFSGSGSGTDFTLTISSLQAEDVAVYYCKQSYIPFTFGGGTKVEIK
notes: Humanized M3-K2
For the molecule B1, the “Inhibit hemolysis IC50” value in assay [1] was found to be 2.11 nM. Further, in the assay with mouse MASP3-His, binding was characterised by a dissociation constant (Kd) of 0.77 nM; the dissociation rate constant (koff) (as a rule, the first-order rate constant of dissociation) is 0.000137 s⁻¹; the on-rate constant (kon) (as a rule, a measure of how fast the partners come together) came out at 178000 M⁻¹ s⁻¹. Also, in the assay with monkey MASP3-His, the affinity, expressed as Kd, was 0.77 nM; the koff was 0.000137 s⁻¹; the association rate constant (kon) is 178000 M⁻¹ s⁻¹. For the same molecule, in the assay with human MASP3-His [2], the dissociation constant (Kd) (in general, the free concentration of one partner at which half of the binding sites on the other are occupied at equilibrium, for simple one-to-one binding) worked out at 1.04 nM; the koff amounted to 0.000189 s⁻¹; the association rate constant (kon) worked out at 182000 M⁻¹ s⁻¹. The “IC50 (nM), inhibition of MASP3 enzyme activity (fluorescent tripeptide cleavage)” value (shortened to “IC50 (nM), inhibition”) with human MASP3-His [3] was 21.9 nM.

B2: M3-K1-1 (antibody, V domains shown)
VH: QVQLVQSGAEVKKPGASVKVSCKASGYTFTGKWIEWVRQAPGQGLEWIGEILPGSGSTDYNERFKDRATFTADTSTSTAYMELSSLRSEDTAVYYCVRSEDLWGQGTLVTVSS
VL: DIVMTQSPDSLAVSLGERATINCKSSQSLLNSVTRKTYLAWYQQKPGQPPKLLIYWASTRESGVPDRFSGSGSGTDFTLTISSLQAEDVAVYYCKQSYTLPTFGGGTKVEIK
Consider B2, for which the “IC50 (nM), inhibition” value in the assay with human MASP3-His [3] was found to be 31.5 nM.

B3: M3-K1-3 (antibody, V domains shown)
VH: QVQLVQSGAEVKKPGASVKVSCKASGYTFTGKWIEWVRQAPGQGLEWMGEILPGSGSTDYNERFKDRATFTADTSTSTAYMELSSLRSEDTAVYYCVRSEDLWGQGTLVTVSS
VL: DIVMTQSPDSLAVSLGERATINCKSSQSLLNSVTRKTYLAWYQQKPGQPPKLLIYWASTRESGVPDRFSGSGSGTDFTLTISSLQAEDVAVYYCKQSYTLPTFGGGTKVEIK
Turning to B3, the “IC50 (nM), inhibition” value in the assay with human MASP3-His [3] was found to be 24.2 nM.

B4: M3-K2-10 (antibody, V domains shown)
VH: QVQLVQSGAEVKKPGASVKVSCKASGYTFTGKWIEWVRQAPGQGLEWMGEILPGSGSTDYNERFKDRVTFTADTSTSTVYMELSSLRSEDTAVYYCVRSEDLWGQGTLVTVSS
VL: DIVLTQSPDSLAVSLGERATINCKSSQNLFNSRTRKNYLAWFQQKPGQSPKLLIYWASTRESGVPDRFSGSGSGTDFTLTISSLQAEDVAVYYCKQSYIPFTFGGGTKVEIK
Consider B4, for which the “IC50 (nM), inhibition” value with human MASP3-His [3] is 37 nM.

B5: M3-K1-2 (antibody, V domains shown)
VH: QVQLVQSGAEVKKPGASVKVSCKASGYTFTGKWIEWVRQAPGQGLEWIGEILPGSGSTDYNERFKDRATFTADTSTSTAYMELSSLRSEDTAVYYCVRSEDLWGQGTLVTVSS
VL: DIVMTQSPDSLAVSLGERATINCKSSQSLLNSVTRKTYLAWYQQKPGQSPKLLIYWASTRESGVPDRFSGSGSGTDFTLTISSLQAEDVAVYYCKQSYTLPTFGGGTKVEIK
Consider B5, for which, in the assay with human MASP3-His [3], the “IC50 (nM), inhibition” value is 31.2 nM.

B6: M3-K1-5 (antibody, V domains shown)
VH: QVQLVQSGAEVKKPGASVKVSCKASGYTFTGKWIEWVRQAPGQGLEWMGEILPGSGSTDYNERFKDRVTFTADTSTSTVYMELSSLRSEDTAVYYCVRSEDLWGQGTLVTVSS
VL: DIVMTQSPDSLAVSLGERATINCKSSQSLLNSVTRKTYLAWYQQKPGQPPKLLIYWASTRESGVPDRFSGSGSGTDFTLTISSLQAEDVAVYYCKQSYTLPTFGGGTKVEIK
Regarding B6, the “IC50 (nM), inhibition” value in the assay with human MASP3-His [3] was determined as 27.9 nM.
